# Experimental data: paper PMC3792076, “Elucidation of Substrate Specificity in Aspergillus nidulans UDP-Galactose-4-Epimerase” (PLoS ONE, 2013)
# B1: AnGALE (Aspergillus nidulans FGSC A4) (protein)
# chain: MPSGSVLVTGGTGYIGSFTTLALLEAGYKVVVADNLYNSSAEALNRIELISGKKAEFAQLDVTDEAAFDKVFEAHPDIDSVIHFAALKAVGESGEKPLDYYHVNVYGTICLLRSMVRHNVTNIVFSSSATVYGDATRFPDMIPIPEHCPLGPTNPYGNTKFAIELAITDVINAQRNNAKKAGNETEAAKWNGALLRYFNPAGAHPSGIMGEDPQGVPYNLLPLLAQVATGKREKLLVFGDDYASHDGTAIRDYIHILDLADGHLKALNYLRANNPGVRAWNLGTGRGSTVYEMIRAFSKAVGRDLPYEVAPRRAGDVLNLTSNPTRANTELGWKAQRTLEQACEDLWLWTKNNPQGYRQQPPAELLEQLKK
# notes: N-terminal His-TEV tag (p-HIS-TEV-GALE), not cleaved for crystallization; E. coli BL21-Gold; homodimer
# B2: AnGALE (Aspergillus nidulans FGSC A4; L320Y) (protein)
# chain: MPSGSVLVTGGTGYIGSFTTLALLEAGYKVVVADNLYNSSAEALNRIELISGKKAEFAQLDVTDEAAFDKVFEAHPDIDSVIHFAALKAVGESGEKPLDYYHVNVYGTICLLRSMVRHNVTNIVFSSSATVYGDATRFPDMIPIPEHCPLGPTNPYGNTKFAIELAITDVINAQRNNAKKAGNETEAAKWNGALLRYFNPAGAHPSGIMGEDPQGVPYNLLPLLAQVATGKREKLLVFGDDYASHDGTAIRDYIHILDLADGHLKALNYLRANNPGVRAWNLGTGRGSTVYEMIRAFSKAVGRDLPYEVAPRRAGDVLNYTSNPTRANTELGWKAQRTLEQACEDLWLWTKNNPQGYRQQPPAELLEQLKK
# notes: as for B1
# Substrate: O=c1ccn([C@@H]2O[C@H](COP(=O)(O)OP(=O)(O)O[C@H]3O[C@H](CO)[C@H](O)[C@H](O)[C@H]3O)[C@@H](O)[C@H]2O)c(=O)[nH]1
# Assay: purified protein
# Format: biochemical, Aspergillus nidulans
# Conditions: 2 mM NAD+, 100 mM Tris-HCl pH 8.5, 25°C
Protein,Km [mM],kcat [s⁻¹],kcat/Km [M⁻¹ s⁻¹]
B1,0.11 ± 0.01,12.8 ± 0.6,116000 ± 8100
B2,0.06 ± 0.01,1.5 ± 0.1,26800 ± 1900
